Data: the supplement of paper PMC7125110
± gives the standard error. For some assays here: This sample holds only a part of the variants without activity.

B1: glmS ribozyme (parent)
chain: AUAAAAGCGCCAGAACUACAGAAAUGUAGUUGACGAGGAGGAGGUUUAUCGAAUUUUCGGCGGAUGCCUCCAAA

Legend:
Conditions in all cases: with glucosamine-6-phosphate
glucosamine-6-phosphate [1] = variants of: B1; assay: kcat; higher = faster cleavage; RNA array
Summary of the method: (§1)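 Weighted Michaelis–Menten fits across concentrations supplied kcat and KM, based on kobs from one- or two-exponential decay fits to normalised per-tile medians. The data came from barcoded ribozyme variants transcribed in situ by E. coli RNA polymerase on sequenced MiSeq chips and tracked at 37 °C by a hybridised Cy3 probe. Glucosamine-6-phosphate (40 μM to 10 mM) in HEPES/KCl/Mg(OAc)2 buffer was flowed in.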

glucosamine-6-phosphate [2] = variants of: B1; assay: KM; higher = weaker cofactor use; RNA array
Summary of the method: as §1

glucosamine-6-phosphate [3] = variants of: B1; assay: self-cleavage kobs at 40 uM GlcN6P; higher = faster cleavage; RNA array
Summary of the method: as §1

glucosamine-6-phosphate [4] = variants of: B1; assay: self-cleavage kobs at 160 uM GlcN6P; higher = faster cleavage; RNA array
Summary of the method: as §1

glucosamine-6-phosphate [5] = variants of: B1; assay: self-cleavage kobs at 640 uM GlcN6P; higher = faster cleavage; RNA array
Summary of the method: as §1

glucosamine-6-phosphate [6] = variants of: B1; assay: self-cleavage kobs at 2500 uM GlcN6P; higher = faster cleavage; RNA array
Summary of the method: as §1

glucosamine-6-phosphate [7] = variants of: B1; assay: self-cleavage kobs at 10000 uM GlcN6P; higher = faster cleavage; RNA array
Summary of the method: as §1

Variant	kcat (glucosamine-6-phosphate [1]) [s⁻¹]	KM (glucosamine-6-phosphate [2]) [µM]	self-cleavage kobs at 40 uM GlcN6P (glucosamine-6-phosphate [3]) [s⁻¹]	self-cleavage kobs at 160 uM GlcN6P (glucosamine-6-phosphate [4]) [s⁻¹]	self-cleavage kobs at 640 uM GlcN6P (glucosamine-6-phosphate [5]) [s⁻¹]	self-cleavage kobs at 2500 uM GlcN6P (glucosamine-6-phosphate [6]) [s⁻¹]	self-cleavage kobs at 10000 uM GlcN6P (glucosamine-6-phosphate [7]) [s⁻¹]
C11A C70U	0.000155 ± 1e-05	210 ± 71	2.69e-05 ± 1e-05	6.69e-05 ± 1.4e-05	0.00011 ± 1.2e-05	0.000168 ± 1.4e-05	0.000145 ± 9.7e-06
C11A C70A	2.97e-05 ± 1.1e-05	–	–	–	4.96e-05 ± 1.9e-05	–	–
C10G A12U	8.15e-05 ± 3.2e-05	–	–	–	–	–	–
C10U C68G	2.34e-05 ± 4.7e-06	–	–	–	–	2.5e-05 ± 7.6e-06	–
C11A A15U U65G C71U	< 1e-05	–	–	–	–	–	–
C10A C70U	2.11e-05 ± 9.5e-06	–	–	–	–	2.56e-05 ± 1.3e-05	–
C11A A52U C67G	2.85e-05 ± 4.6e-06	–	–	–	–	–	–
C10G C61A	1.32e-05 ± 9.6e-07	180 ± 67	< 1e-05	–	< 1e-05	–	< 1e-05
C10A U55G	< 1e-05	–	–	< 1e-05	–	–	–
G7U G60A	< 1e-05	–	–	–	< 1e-05	< 1e-05	< 1e-05
C10U G59U	2.6e-05 ± 1.8e-06	2000 ± 700	–	–	–	–	2.16e-05 ± 1.1e-05
A6G C50G C68U	0.000115 ± 2.9e-05	–	5.04e-05 ± 2.1e-05	9.16e-05 ± 2.3e-05	0.000189 ± 4.8e-05	0.000173 ± 4.6e-05	7.92e-05 ± 2.5e-05
C10A C61G	< 1e-05	–	–	–	–	–	–
A6C U30A	< 1e-05	–	< 1e-05	< 1e-05	–	–	–
C10U U47C	< 1e-05	–	< 1e-05	–	< 1e-05	–	–
A1U U2G A3G A5U	0.0105 ± 0.0015	1320 ± 260	0.000338 ± 5.7e-05	0.00116 ± 0.00022	0.00274 ± 0.00078	0.006 ± 0.0016	0.0103 ± 0.0017
C10U A14G C68G	3.32e-05 ± 9.4e-06	–	–	–	–	–	–
A6U U65A	< 1e-05	–	–	–	–	–	–
A6U U65G	3.43e-05 ± 1e-05	–	< 1e-05	–	–	4.32e-05 ± 1.3e-05	–
A6C C70G	1.09e-05 ± 2.1e-06	–	–	–	–	–	–
A6U U54A C67A	2.15e-05 ± 2.2e-06	–	–	< 1e-05	–	–	–
G7U G13A	< 1e-05	–	< 1e-05	–	–	< 1e-05	–
A6U G66U	< 1e-05	1280 ± 630	–	–	–	–	–
A6U G66A	0.000205 ± 1.7e-05	3170 ± 600	–	–	3.28e-05 ± 1.3e-05	9.12e-05 ± 1.4e-05	0.000155 ± 1.9e-05
C8U G37A C58G	< 1e-05	–	–	–	–	–	–

Variant	kcat (glucosamine-6-phosphate [1]) [s⁻¹]	KM (glucosamine-6-phosphate [2]) [µM]	self-cleavage kobs at 40 uM GlcN6P (glucosamine-6-phosphate [3]) [s⁻¹]	self-cleavage kobs at 160 uM GlcN6P (glucosamine-6-phosphate [4]) [s⁻¹]	self-cleavage kobs at 640 uM GlcN6P (glucosamine-6-phosphate [5]) [s⁻¹]	self-cleavage kobs at 2500 uM GlcN6P (glucosamine-6-phosphate [6]) [s⁻¹]	self-cleavage kobs at 10000 uM GlcN6P (glucosamine-6-phosphate [7]) [s⁻¹]
C10G U47G G60C	0.000977 ± 0.00037	–	–	0.000156 ± 5e-05	0.000256 ± 7.5e-05	0.000552 ± 0.00013	0.0011 ± 0.00032
C10U G60A C71U	1.14e-05 ± 1.1e-06	2050 ± 570	–	–	–	–	–
A6U C16G U55A	1.73e-05 ± 5.1e-06	–	–	–	–	–	–
C11A C58A	2e-05 ± 2.2e-07	1680 ± 98	< 1e-05	< 1e-05	< 1e-05	–	–
G9U C34G C58G C68U	4.14e-05 ± 1.9e-05	–	–	5.81e-05 ± 2.8e-05	–	–	–
G9U U47C	< 1e-05	–	–	< 1e-05	< 1e-05	< 1e-05	–
C11A A53U	0.000128 ± 2.5e-06	2860 ± 180	–	–	–	6.02e-05 ± 1.6e-05	9.96e-05 ± 1.2e-05
C8U G35A U45A U69G	1.02e-05 ± 2.7e-06	–	–	–	–	–	–
C10U A52C C61A U69A	< 1e-05	–	–	–	–	–	–
C11A G40U	1.13e-05 ± 2e-06	–	–	< 1e-05	< 1e-05	–	–
G7A U31G	2.76e-05 ± 2.9e-06	2490 ± 920	–	–	–	–	–
C10U U54A	4.72e-05 ± 5.3e-06	–	< 1e-05	< 1e-05	–	4.32e-05 ± 2.1e-05	4.37e-05 ± 9.7e-06
C8G A15U U55C G60A	< 1e-05	–	–	–	–	–	< 1e-05
A6U A64G	0.000266 ± 4.3e-05	1910 ± 590	–	–	7.26e-05 ± 7.4e-06	0.000128 ± 1.6e-05	0.00025 ± 2.8e-05
A6U A15C A48U U69G	2.37e-05 ± 7.1e-06	–	< 1e-05	–	–	–	–
C8A C67A	< 1e-05	–	–	< 1e-05	–	< 1e-05	–
A6U U49A C71G	3.45e-05 ± 8.5e-06	–	–	–	–	–	–
C11A G29A	3.97e-05 ± 1.6e-06	2550 ± 350	–	–	–	–	3.17e-05 ± 9.4e-06
C11A G37U	1.35e-05 ± 3.5e-06	–	–	< 1e-05	–	–	–
C11A U30A U45G	2.81e-05 ± 1.1e-06	3690 ± 410	–	–	–	–	–
G9U A39U C61A	0.000456 ± 2.3e-05	503 ± 58	–	0.000118 ± 4.8e-05	0.000243 ± 6.2e-05	0.000376 ± 0.00013	0.00046 ± 0.00017
C10A C50U	< 1e-05	–	–	–	–	–	< 1e-05
C8U A36C	< 1e-05	–	–	–	–	–	< 1e-05
C10A G51U	< 1e-05	–	< 1e-05	–	–	–	< 1e-05
